Assay results reported in paper PMC8207774, “NtbHLH1, a JAF13-like bHLH, interacts with NtMYB6 to enhance proanthocyanidin accumulation in Chinese Narcissus” (BMC Plant Biology, 2021).

Target: T1, NtbHLH1 (Chinese narcissus (Narcissus tazetta L. …, UniProt A0A517FM44 1-631))
T1 sequence (looked up): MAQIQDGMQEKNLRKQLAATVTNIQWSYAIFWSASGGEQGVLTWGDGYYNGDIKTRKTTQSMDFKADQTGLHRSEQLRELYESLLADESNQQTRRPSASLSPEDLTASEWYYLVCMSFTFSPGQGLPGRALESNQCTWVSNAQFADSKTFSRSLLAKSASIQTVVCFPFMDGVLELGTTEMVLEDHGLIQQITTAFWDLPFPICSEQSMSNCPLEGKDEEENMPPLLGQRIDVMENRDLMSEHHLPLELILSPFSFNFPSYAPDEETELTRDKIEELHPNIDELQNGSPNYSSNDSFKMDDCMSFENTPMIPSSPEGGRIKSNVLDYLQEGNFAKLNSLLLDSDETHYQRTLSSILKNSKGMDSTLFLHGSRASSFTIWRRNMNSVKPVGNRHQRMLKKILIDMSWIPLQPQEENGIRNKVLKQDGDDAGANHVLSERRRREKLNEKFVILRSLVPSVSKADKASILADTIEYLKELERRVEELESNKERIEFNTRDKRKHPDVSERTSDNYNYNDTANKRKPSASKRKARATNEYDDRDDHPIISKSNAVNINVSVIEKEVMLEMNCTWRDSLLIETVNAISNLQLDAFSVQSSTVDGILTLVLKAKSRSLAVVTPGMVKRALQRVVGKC
Assay: cell-based or functional assay

NtDFR promoter activity, dual luciferase assay in N. benthamiana leaves, co-infiltration of NtbHLH1 and NtMYB6 compared to NtMYB6 alone: ~8 fold
NtDFR promoter activity, dual luciferase assay in N. benthamiana leaves, co-infiltration of NtbHLH1 and NtMYB6 compared to the control: ~14 fold
B1: NtMYB6 (natural protein, UniProt A0A1U9X216 1-249, looked up)
chain: MGRAPCCSKVGLHRGPWTAREDALLTNYIQCHGEGNWRSLPKNAGLLRCGKSCRLRWMNYLRPDIKRGNIGPEEEDLIIRLHSLLGNRWSIIAGRLPGRTDNEIKNYWNSHLSKKLKKQGIQVRGNLSSKQSKSSKMNNNDNNNNLEKRKNIKETPKIKIHAPKPTRFTRTISQSSSSCQANNVENVTSEDERCDIPWTNAESQDDIFAPGSWNYELFDIDRVYQEYSQLLNGEDDQFPMASFTESVFA
